Measured values as given in PMC3657613 (Nature chemical biology, 2012).

Tests used:
MC4R Δ1–24 = MC4R Δ1–24 (Homo sapiens, UniProt P32245); assay: MC4R activity, cAMP-responsive luciferase reporter in transfected HEK293 cells; format: cell-based; details: for stimulation of MC4R Δ1–24 by peptide (efficacy): compared with constitutive activity of wild-type MC4R, normalized to membrane expression, triplicate, Fig. 2a
wild-type MC4R = assay: as above; format: cell-based, human; details: constitutive activity; Fig. 1f

Sequence of MC4R Δ1–24 (P32245 25-332, stated change not applied): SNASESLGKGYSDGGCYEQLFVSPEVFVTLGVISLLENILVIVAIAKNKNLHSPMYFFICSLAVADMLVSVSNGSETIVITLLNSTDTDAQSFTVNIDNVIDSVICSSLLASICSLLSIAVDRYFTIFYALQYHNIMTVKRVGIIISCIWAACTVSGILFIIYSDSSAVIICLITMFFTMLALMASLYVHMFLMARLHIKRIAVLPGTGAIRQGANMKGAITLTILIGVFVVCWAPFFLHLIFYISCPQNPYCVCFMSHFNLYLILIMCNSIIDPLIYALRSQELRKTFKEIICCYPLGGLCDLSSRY

Substance | stimulation of MC4R Δ1–24 by peptide (efficacy) (MC4R Δ1–24) | further results
MC4R 14–19 L15A: MC4R 14–19 hexapeptide with L15A substitution (HAWNRS) | not significantly different from the constitutive activity of wild-type MC4R | –
MC4R 2–19: smaller overlapping peptide spanning the MC4R N-terminal domain, residues 2–19 (VNSTHRGMHTSLHLWNRS) | not significantly different from the constitutive activity of wild-type MC4R | –
MC4R 14–26: smaller overlapping peptide spanning the MC4R N-terminal domain, residues 14–26 (HLWNRSSYRLHSN) | not significantly different from the constitutive activity of wild-type MC4R | –
MC4R 14–19 S19A: MC4R 14–19 hexapeptide with S19A substitution (HLWNRA) | not significantly different from the constitutive activity of wild-type MC4R | –
MC4R 14–19 R18L: MC4R 14–19 hexapeptide with R18L substitution (HLWNLS) | markedly disrupted MC4R 14–19 efficacy | –
Agouti-related protein (SSRRCVRLHESCLGQQVPCCDPCATCYCRFFNAFCYCRKLGTAMNPCSRT; UniProt O00253 83-132, looked up) [AgRP] | – | AgRP inverse agonism of wild-type MC4R (wild-type MC4R): inverse agonism of the wild-type receptor; AgRP antagonism of MC4R 2–26 activation of MC4R Δ1–24 (MC4R Δ1–24; Fig. 1f): inhibits the activation of MC4R Δ1–24 by MC4R 2–26 with similar potency as its inverse agonism of the wild-type receptor; effect on residual N terminal–independent constitutive activity of MC4R Δ1–24 (MC4R Δ1–24; Supplementary Fig. 3a): inhibits the residual N terminal–independent constitutive activity; inhibition of αMSH-induced receptor activation (MC4R Δ1–24; receptor with or without the N-terminal domain, Supplementary Fig. 3e): inhibits αMSH-induced receptor activation independent of the absence or presence of the N-terminal domain
MC4R 14–19 W16A: MC4R 14–19 hexapeptide with W16A substitution (HLANRS) | markedly disrupted MC4R 14–19 efficacy | –
HLWNRS [MC4R 14–19] | not significantly different from the constitutive activity of wild-type MC4R | –
MC4R 8–20: smaller overlapping peptide spanning the MC4R N-terminal domain, residues 8–20 (GMHTSLHLWNRSS) | not significantly different from the constitutive activity of wild-type MC4R | –
MC4R 14–19 H14A: MC4R 14–19 hexapeptide with H14A substitution (ALWNRS) | markedly disrupted MC4R 14–19 efficacy | –
MC4R 8–26: smaller overlapping peptide spanning the MC4R N-terminal domain, residues 8–26 (GMHTSLHLWNRSSYRLHSN) | not significantly different from the constitutive activity of wild-type MC4R | –
MC4R 14–19 N17A: MC4R 14–19 hexapeptide with N17A substitution (HLWARS) | not significantly different from the constitutive activity of wild-type MC4R | –
